In CN115197317A (ANYUAN PHARMACEUTICAL TECH SHANGHAI CO LTD, dated 2022):

B1: 人源化抗体hST-10-4 (antibody, V domains shown)
VH: EVTLKESGPALVKPTQTLTLTCTFSGFSLDSSNMGVSWIRQPPGKGLEWLAHIYWGDDNRYNPSLKSRLTVSKDTSKNQVVLTMTNMEPVDTATYYCARKWNWDWFPYWGQGTTVTVSS
VL: DIVLTQSPDSLAVSLGERATINCRASKSVSASGYSFMHWYQQKPGQPPKLLISLASNLESGVPARFSGSGSGTDFTLTISRLQAEDVAVYYCQHSRELPLTFGAGTKLEIKR
B2: 人源化抗体hST-35-4 (antibody, V domains shown)
VH: EVQLVQSGAEVKKPGSSVKVSCKTSGYTFTTYTIHWIRQAPGQGLEWIGAVNPGNADTSYSQKFKGRATLTADKSSNTAYMELSSLRSEDTAVYYCARDAYPYFYALDSWGQGTTVTVSS
VL: DIQMTQSPSSLSASVGDRVTITCRAGQEISSYLTWLQQKPEGTIKRLIYAASTLDSGVPKRFSGSRSGSDYTLTISSLQPEDFATYYCLQYASYPWTFGGGTKVEIKR
B3: 鼠源抗体ST-10-4 (antibody, V domains shown)
VH: QVTLKESGPGILQPSQTLTLTCSFSGFSLDSSNMGVSWIRQTSGKGLEWLAHIYWGDDNRYNPSLKSRLTVSKDTSSNQVFLKLTNVDTADTATYYCARKWNWDWFPYWGQGTLVTVSA
VL: DIVLTQSPTSLPVSLGQRATISCRASKSVSASGYSFMHWYQQKPGQPPKLLISLASNLESGVPARFSGSGSGTDFTLNIHPVEEEDAATYYCQHSRELPLTFGAGTKLELK
B4: 鼠源抗体ST-35-4 (antibody, V domains shown)
VH: QVQLQQPGAELVRPGASMKLSCKTSGYTFTTYTIHWIKQTPGQGLEWIGAVNPGNGDTSYSQKFKGRAILTADKSSNTASMQFSSLTSEDSAVYYCARDGYPYFYALDSWGQGTSVTVSS
VL: DIQMTQSPSSLSASLGERVSLTCRAGQEISSYLTWLQQKPDGTIKRLIYAASTLDSGVPKRFSGSRSGSDYSLTINSLESEDFADYYCLQYASYPWTFGGGTKVEIK

What was measured:
刺突S-鼠Fc融合蛋白 (S-mFc) = 刺突S-鼠Fc融合蛋白 (S-mFc) (SARS-CoV-2; mouse, UniProt P0DTC2 14-1213)
SARS-CoV-2 S蛋白(His标签) = SARS-CoV-2 S蛋白(His标签) (SARS-CoV-2, UniProt P0DTC2 16-1213); assay: competition ELISA, S protein (His tag) coated, HRP-hACE2-Fc as competitor
[1] = molecular target: T1, SARS-CoV-2 S蛋白 (ACRO Biosystems, coated in ELISA 7.1) (SARS-CoV-2, UniProt P0DTC2 16-1213); assay: indirect ELISA, S protein coated at 0.1 μg/mL
T1 construct: also called SARS-CoV S蛋白(ACRO Biosystems)

Binder | IC50 (刺突S-鼠Fc融合蛋白 (S-mFc)) | IC50 (SARS-CoV-2 S蛋白(His标签)) | EC50 [1]
B1 | 0.0123 µg/mL | 0.257 µg/mL | 0.0023 µg/mL
B2 | 0.0163 µg/mL | 0.194 µg/mL | 0.0018 µg/mL
B3 | 0.0165 µg/mL | – | –
B4 | 0.0118 µg/mL | – | –
